The text below walks through data of publication PMC9309405, “The integration of AlphaFold-predicted and crystal structures of human trans-3-hydroxy-L-proline dehydratase reveals a regulatory catalytic mechanism” (Computational and Structural Biotechnology Journal, 2022).

Substrate in the series: O=C(O)[C@H]1NCC[C@@H]1O
Nature of the series: purified protein. Format: biochemical, Homo sapiens. The note with it: oxidizing conditions, without DTT; 1xPBS; substrate-inhibition fit; with 1 mM DTT a separate lower KM is reported; substrate named only hydroxyproline in methods.

In general, Km refers to the substrate concentration at which the rate is half of its maximum.

B1: human trans-3-Hydroxy-L-proline dehydratase (hL3HYPDH) (Homo sapiens) (protein)
chain: MESALAVPRLPPHDPGTPVLSVVDMHTGGEPLRIVLAGCPEVSGPTLLAKRRYMRQHLDHVRRRLMFEPRGHRDMYGAVLVPSELPDAHLGVLFLHNEGYSSMCGHAVLALGRFALDFGLVPAPPAGTREARVNIHCPCGLVTAFVACEDGRSHGPVRFHSVPAFVLATDLMVDVPGHGKVMVDIAYGGAFYAFVTAEKLGLDICSAKTRDLVDAASAVTEAVKAQFKINHPDSEDLAFLYGTILTDGKDAYTKEPTTNICVFADEQVDRSPTGSGVTARIALQYHKGLLELNQMRAFKSSATGSVFTGKAVREAKCGDFKAVIVEVSGQAHYTGTASFIIEDDDPLRDGFLLK
notes: recombinant, cloned in pET28b, E. coli BL21(DE3), His-Trap then Superdex 200; homodimer; crystal model residues 4-354; Cys104-Cys137 intramolecular disulphide
In the case of B1, the Michaelis constant (Km) stood at 416.7 µM.
